Laboratory results as given in patent US20170081400A1 (CEPHALON, published 2017).
Positions count from the first letter of the chain named. Blank lines part the entries; values can stand above or below the binder they belong to.

Legend:
[1] = target: T1, human TL1A extracellular domain with N-terminal HIS and FLAG tag (human) (UniProt O95150); experiment: cell-based or functional assay
T1 sequence: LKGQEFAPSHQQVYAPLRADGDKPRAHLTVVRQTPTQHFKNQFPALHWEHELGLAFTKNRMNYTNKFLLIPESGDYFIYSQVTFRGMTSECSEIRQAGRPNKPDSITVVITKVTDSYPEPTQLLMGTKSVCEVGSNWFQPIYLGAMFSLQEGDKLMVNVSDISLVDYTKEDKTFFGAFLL

[2] = target: T2, human TL1A extracellular domain with N-terminal HIS and FLAG tag (human, UniProt O95150 72-251); experiment: SPR run 2; supernatant on Protein A; TL1A 10 ug/mL; timepoint 44
T2 construct: whole entry named. ~70 kDa fraction purified by gel filtration
T2 sequence: T1 sequence
Description: (§1) 1.5. Antibody expression and antigen binding as determined by SPR. Using a CM5 sensor chip (GE Healthcare) Protein A (Pierce) was coupled to the chip surface using an amine coupling kit (GE Healthcare). Protein A was coupled on flow cell 1 and 2 (or alternatively 3 and 4) using a BIACORE® T200. […] The amount of supernatant or purified protein (as well as the concentration) injected during the capture stage varied between runs and is specified in the header of the Tables 3-11. At the end of injection of the supernatant or purified antibody the change in response units was measured. This value was reported as Capture Level in Tables 3-11. […] The response units were measured prior to the end of the dissociation phase. […] The sensorgrams were double referenced (flow cell 2 is subtracted from flow cell 1 and a buffer blank). As there were a large number of antibody variants to screen, these were screened across different runs (Tables 3-11). […] A summary of the conditions used in each run is below:
(§2) 2.1. […] In some experiment the antibodies were purified using Protein A chromatography (See 1.4) and purified antibodies were used in BIACORE® (GE Healthcare) experiments.

[3] = target: T2, human TL1A extracellular domain with …; experiment: SPR run 2; supernatant on Protein A; TL1A 10 ug/mL; timepoint 220
Description: as §1, §2

B1: 320-198 (antibody, human IgG1, name in Kabat numbering, V domains shown)
VH: QVQLVQSGAEVKKPGASVKVSCKASGYTFTSYDINWVRQAPGQGLEWMGWLNPNSGNTGYAQKFQGRVTMTADRSTSTAYMELSSLRSEDTAVYYCAREVPETAAFEYWGQGTLVTVSS
VL: QSVLTQPPSVSGAPGQRVTISCLSSSSDIGAGLGVHWYQQLPGTAPKLLIEGYYNRPSGVPDRFSGSKSGTSASLTITGLLPEDEGDYYCQSYDGTLSALFGGGTKLTVLG
notes: human IgG1, lambda
Antibody IC50, TL1A induced caspase potency assay in TF-1 cells [1]: 0.01 µg/mL
Fold improvement over 320-179, TL1A induced caspase potency assay in TF-1 cells [1]: 1 fold
TL1A Binding Level (Early) [2]: 262 RU
TL1A Binding Level (Late) [3]: 241 RU

B3: 320-230 (antibody, human IgG1, name in Kabat numbering, V domains shown)
VH: B1 VH
VL: B1 VL with L23T, S27L
notes: human IgG1, lambda
TL1A Binding Level (Early) [2]: 245 RU
TL1A Binding Level (Late) [3]: 223 RU

B5: 320-234 (antibody, human IgG1, name in Kabat numbering, V domains shown)
VH: B1 VH
VL: B1 VL with L23T, D28S
notes: human IgG1, lambda
TL1A Binding Level (Early) [2]: 262 RU
TL1A Binding Level (Late) [3]: 239 RU

B6: 320-228 (antibody, human IgG1, name in Kabat numbering, V domains shown)
VH: B1 VH
VL: B1 VL with L23T, S27H
notes: human IgG1, lambda
TL1A Binding Level (Early) [2]: 259 RU
TL1A Binding Level (Late) [3]: 235 RU

B7: 320-232 (antibody, human IgG1, name in Kabat numbering, V domains shown)
VH: B1 VH
VL: B1 VL with L23T, S27Y
notes: human IgG1, lambda
TL1A Binding Level (Early) [2]: 261 RU
TL1A Binding Level (Late) [3]: 235 RU

B8: 320-235 (antibody, human IgG1, name in Kabat numbering, V domains shown)
VH: B1 VH
VL: B1 VL with L23T, D28Q
notes: human IgG1, lambda
TL1A Binding Level (Early) [2]: 256 RU
TL1A Binding Level (Late) [3]: 236 RU

B9: 320-219 (antibody, human IgG1, name in Kabat numbering, V domains shown)
VH: B1 VH
VL: B1 VL with L23T, S26D
notes: human IgG1, lambda
Antibody IC50, TL1A induced caspase potency assay in TF-1 cells [1]: 0.02 µg/mL
Fold improvement over 320-179, TL1A induced caspase potency assay in TF-1 cells [1]: 2 fold
TL1A Binding Level (Early) [2]: 243 RU
TL1A Binding Level (Late) [3]: 220 RU

B12: 320-202 (antibody, human IgG1, name in Kabat numbering, V domains shown)
VH: B1 VH
VL: B1 VL with L23T, S24Q
notes: human IgG1, lambda
Antibody IC50, TL1A induced caspase potency assay in TF-1 cells [1]: 0.01 µg/mL
Fold improvement over 320-179, TL1A induced caspase potency assay in TF-1 cells [1]: 1 fold
TL1A Binding Level (Early) [2]: 234 RU
TL1A Binding Level (Late) [3]: 214 RU

B14: 320-223 (antibody, human IgG1, name in Kabat numbering, V domains shown)
VH: B1 VH
VL: B1 VL with L23T, S26W
notes: human IgG1, lambda
TL1A Binding Level (Early) [2]: 143 RU
TL1A Binding Level (Late) [3]: 66 RU

B15: 320-227 (antibody, human IgG1, name in Kabat numbering, V domains shown)
VH: B1 VH
VL: B1 VL with L23T, S27D
notes: human IgG1, lambda
TL1A Binding Level (Early) [2]: 242 RU
TL1A Binding Level (Late) [3]: 218 RU

B16: 320-231 (antibody, human IgG1, name in Kabat numbering, V domains shown)
VH: B1 VH
VL: B1 VL with L23T, S27W
notes: human IgG1, lambda
TL1A Binding Level (Early) [2]: 271 RU
TL1A Binding Level (Late) [3]: 243 RU

B17: 320-226 (antibody, human IgG1, name in Kabat numbering, V domains shown)
VH: B1 VH
VL: B1 VL with L23T, S27Q
notes: human IgG1, lambda
Antibody IC50, TL1A induced caspase potency assay in TF-1 cells [1]: 0.03 µg/mL
Fold improvement over 320-179, TL1A induced caspase potency assay in TF-1 cells [1]: 1 fold
TL1A Binding Level (Early) [2]: 250 RU
TL1A Binding Level (Late) [3]: 228 RU

B18: 320-238 (antibody, human IgG1, name in Kabat numbering, V domains shown)
VH: B1 VH
VL: B1 VL with L23T, D28L
notes: human IgG1, lambda
TL1A Binding Level (Early) [2]: 221 RU
TL1A Binding Level (Late) [3]: 191 RU

B20: 320-207 (antibody, human IgG1, name in Kabat numbering, V domains shown)
VH: B1 VH
VL: B1 VL with L23T, S24W
notes: human IgG1, lambda
Antibody IC50, TL1A induced caspase potency assay in TF-1 cells [1]: 0.007 µg/mL
Fold improvement over 320-179, TL1A induced caspase potency assay in TF-1 cells [1]: 3 fold
TL1A Binding Level (Early) [2]: 268 RU
TL1A Binding Level (Late) [3]: 243 RU

B21: 320-224 (antibody, human IgG1, name in Kabat numbering, V domains shown)
VH: B1 VH
VL: B1 VL with L23T, S26Y
notes: human IgG1, lambda
TL1A Binding Level (Early) [2]: 198 RU
TL1A Binding Level (Late) [3]: 153 RU

B22: 320-222 (antibody, human IgG1, name in Kabat numbering, V domains shown)
VH: B1 VH
VL: B1 VL with L23T, S26L
notes: human IgG1, lambda
TL1A Binding Level (Early) [2]: 156 RU
TL1A Binding Level (Late) [3]: 96 RU

B25: 320-225 (antibody, human IgG1, name in Kabat numbering, V domains shown)
VH: B1 VH
VL: B1 VL with L23T, S27A
notes: human IgG1, lambda
TL1A Binding Level (Early) [2]: 267 RU
TL1A Binding Level (Late) [3]: 243 RU

B27: 320-209 (antibody, human IgG1, name in Kabat numbering, V domains shown)
VH: B1 VH
VL: B1 VL with L23T, S25A
notes: human IgG1, lambda
Antibody IC50, TL1A induced caspase potency assay in TF-1 cells [1]: 0.04 µg/mL
Fold improvement over 320-179, TL1A induced caspase potency assay in TF-1 cells [1]: 1 fold
TL1A Binding Level (Early) [2]: 222 RU
TL1A Binding Level (Late) [3]: 200 RU

B28: 320-229 (antibody, human IgG1, name in Kabat numbering, V domains shown)
VH: B1 VH
VL: B1 VL with L23T, S27K
notes: human IgG1, lambda
Antibody IC50, TL1A induced caspase potency assay in TF-1 cells [1]: 0.04 µg/mL
Fold improvement over 320-179, TL1A induced caspase potency assay in TF-1 cells [1]: 2 fold
TL1A Binding Level (Early) [2]: 268 RU
TL1A Binding Level (Late) [3]: 251 RU

Second part, the binder after the results:

TL1A Binding Level (Early) [2]: 124 RU
TL1A Binding Level (Late) [3]: 49 RU
B2: 320-242 (antibody, human IgG1, name in Kabat numbering, V domains shown)
VH: B1 VH
VL: B1 VL with L23T, I29S
notes: human IgG1, lambda

TL1A Binding Level (Early) [2]: 134 RU
TL1A Binding Level (Late) [3]: 50 RU
B4: 320-251 (antibody, human IgG1, name in Kabat numbering, V domains shown)
VH: B1 VH
VL: B1 VL with L23T, G30S
notes: human IgG1, lambda

TL1A Binding Level (Early) [2]: 96 RU
TL1A Binding Level (Late) [3]: 30 RU
B10: 320-248 (antibody, human IgG1, name in Kabat numbering, V domains shown)
VH: B1 VH
VL: B1 VL with L23T, I29W
notes: human IgG1, lambda

TL1A Binding Level (Early) [2]: 212 RU
TL1A Binding Level (Late) [3]: 163 RU
B11: 320-239 (antibody, human IgG1, name in Kabat numbering, V domains shown)
VH: B1 VH
VL: B1 VL with L23T, D28W
notes: human IgG1, lambda

Antibody IC50, TL1A induced caspase potency assay in TF-1 cells [1]: 0.02 µg/mL
Fold improvement over 320-179, TL1A induced caspase potency assay in TF-1 cells [1]: 1 fold
TL1A Binding Level (Early) [2]: 179 RU
TL1A Binding Level (Late) [3]: 122 RU
B13: 320-241 (antibody, human IgG1, name in Kabat numbering, V domains shown)
VH: B1 VH
VL: B1 VL with L23T, I29A
notes: human IgG1, lambda

TL1A Binding Level (Early) [2]: 32 RU
TL1A Binding Level (Late) [3]: 23 RU
B19: 320-246 (antibody, human IgG1, name in Kabat numbering, V domains shown)
VH: B1 VH
VL: B1 VL with L23T, I29K
notes: human IgG1, lambda

TL1A Binding Level (Early) [2]: 230 RU
TL1A Binding Level (Late) [3]: 196 RU
B23: 320-240 (antibody, human IgG1, name in Kabat numbering, V domains shown)
VH: B1 VH
VL: B1 VL with L23T, D28Y
notes: human IgG1, lambda

TL1A Binding Level (Early) [2]: 77 RU
TL1A Binding Level (Late) [3]: 28 RU
B24: 320-249 (antibody, human IgG1, name in Kabat numbering, V domains shown)
VH: B1 VH
VL: B1 VL with L23T, I29Y
notes: human IgG1, lambda

TL1A Binding Level (Early) [2]: 205 RU
TL1A Binding Level (Late) [3]: 162 RU
B26: 320-247 (antibody, human IgG1, name in Kabat numbering, V domains shown)
VH: B1 VH
VL: B1 VL with L23T, I29L
notes: human IgG1, lambda

TL1A Binding Level (Early) [2]: 180 RU
TL1A Binding Level (Late) [3]: 115 RU
B29: 320-250 (antibody, human IgG1, name in Kabat numbering, V domains shown)
VH: B1 VH
VL: B1 VL with L23T, G30A
notes: human IgG1, lambda

Antibody IC50, TL1A induced caspase potency assay in TF-1 cells [1]: 0.54 µg/mL
Fold improvement over 320-179, TL1A induced caspase potency assay in TF-1 cells [1]: 0 fold
TL1A Binding Level (Early) [2]: 59 RU
TL1A Binding Level (Late) [3]: 26 RU
B30: 320-245 (antibody, human IgG1, name in Kabat numbering, V domains shown)
VH: B1 VH
VL: B1 VL with L23T, I29H
notes: human IgG1, lambda

TL1A Binding Level (Early) [2]: 71 RU
TL1A Binding Level (Late) [3]: 26 RU
B31: 320-243 (antibody, human IgG1, name in Kabat numbering, V domains shown)
VH: B1 VH
VL: B1 VL with L23T, I29Q
notes: human IgG1, lambda
